Results on eleven substances are retold here after the supplement of paper PMC5998384.

The test system of series [1] is HeLa Kyoto. As to the kind of experiment: thermal stability score vs G1/S (z-score of summed log2 fold changes over temperatures); higher = more thermally stable than in G1/S.
Series [2] relates to HeLa Kyoto. The series can be described thus: solubility in G1/S (NP-40 vs SDS abundance) (log2 ratio); higher = more soluble. The note with it: cell cycle stage: G1/S.
For series [3], the system named is HeLa Kyoto. As to the kind of experiment: solubility change mitosis vs G1/S (difference of NP-40 vs SDS log2 ratios) (log2 ratio difference); higher = more soluble in mitosis.
Series [4] has as its system HeLa Kyoto. As to the kind of experiment: melting temperature (median over replicates), in situ; higher = more thermally stable.
Setting [5] is: cell cycle stage: early G1 (4.5 h after nocodazole release).
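Throughout, for melting temperature (median over replicates), in situ: HeLa Kyoto cells synchronized by double thymidine or nocodazole block, proteins quantified by TMT10plex mass spectrometry, three independent biological replicates.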
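Throughout, for solubility change mitosis vs G1/S (difference of NP-40 vs SDS log2 ratios): synchronized HeLa Kyoto cells (double thymidine block for G1/S, nocodazole release for mitosis), protein amounts in NP-40 versus SDS lysates quantified by mass spectrometry, three biological replicates.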
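Throughout, for solubility in G1/S (NP-40 vs SDS abundance): HeLa Kyoto cells arrested at G1/S by double thymidine block, proteins quantified by TMT10plex mass spectrometry in mild NP-40 versus SDS extracts, three biological replicates.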
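Throughout, for thermal stability score vs G1/S (z-score of summed log2 fold changes over temperatures): synchronized HeLa Kyoto cells, proteins quantified by TMT10plex mass spectrometry, three biological replicates, mitosis taken 0.5 h after nocodazole release, G1/S directly after double thymidine block.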

Sequence of HSPA5 (chain, as listed by the source): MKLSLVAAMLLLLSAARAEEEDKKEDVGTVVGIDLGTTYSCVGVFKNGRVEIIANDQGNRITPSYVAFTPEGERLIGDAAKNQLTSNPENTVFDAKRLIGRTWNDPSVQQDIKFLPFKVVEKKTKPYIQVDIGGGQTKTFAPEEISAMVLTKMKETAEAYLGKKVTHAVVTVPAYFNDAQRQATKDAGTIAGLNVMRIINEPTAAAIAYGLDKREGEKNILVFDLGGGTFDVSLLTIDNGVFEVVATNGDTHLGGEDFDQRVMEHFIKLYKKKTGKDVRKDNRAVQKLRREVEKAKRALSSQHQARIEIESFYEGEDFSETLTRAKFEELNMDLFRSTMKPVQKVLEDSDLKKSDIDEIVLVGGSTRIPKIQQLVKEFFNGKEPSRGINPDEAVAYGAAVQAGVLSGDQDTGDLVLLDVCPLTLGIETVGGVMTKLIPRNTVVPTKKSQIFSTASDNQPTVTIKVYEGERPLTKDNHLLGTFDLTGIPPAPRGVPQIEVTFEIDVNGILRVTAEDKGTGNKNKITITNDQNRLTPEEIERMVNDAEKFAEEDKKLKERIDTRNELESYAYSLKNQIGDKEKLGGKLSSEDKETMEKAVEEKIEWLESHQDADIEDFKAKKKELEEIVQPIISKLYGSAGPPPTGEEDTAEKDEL
Sequence of KCTD3 (chain, as listed by the source): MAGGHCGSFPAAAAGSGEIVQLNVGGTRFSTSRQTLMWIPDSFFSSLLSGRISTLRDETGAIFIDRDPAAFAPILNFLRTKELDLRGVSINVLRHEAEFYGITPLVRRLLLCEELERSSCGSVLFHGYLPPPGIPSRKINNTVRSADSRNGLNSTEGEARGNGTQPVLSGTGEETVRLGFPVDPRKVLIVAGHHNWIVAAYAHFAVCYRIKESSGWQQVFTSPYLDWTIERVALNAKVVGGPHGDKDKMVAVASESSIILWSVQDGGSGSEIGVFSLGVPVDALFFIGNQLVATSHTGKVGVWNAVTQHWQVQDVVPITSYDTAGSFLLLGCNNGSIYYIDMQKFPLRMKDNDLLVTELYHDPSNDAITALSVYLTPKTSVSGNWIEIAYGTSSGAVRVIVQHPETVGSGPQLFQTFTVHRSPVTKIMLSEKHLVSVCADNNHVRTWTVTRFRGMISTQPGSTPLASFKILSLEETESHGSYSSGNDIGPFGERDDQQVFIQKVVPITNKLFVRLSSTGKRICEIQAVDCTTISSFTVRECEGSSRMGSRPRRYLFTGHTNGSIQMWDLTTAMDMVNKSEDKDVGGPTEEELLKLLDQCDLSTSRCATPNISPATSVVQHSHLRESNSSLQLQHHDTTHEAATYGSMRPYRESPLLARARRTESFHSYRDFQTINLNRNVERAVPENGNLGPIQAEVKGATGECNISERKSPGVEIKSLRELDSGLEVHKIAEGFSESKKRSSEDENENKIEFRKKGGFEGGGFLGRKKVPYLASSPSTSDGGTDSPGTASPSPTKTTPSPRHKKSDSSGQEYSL
Sequence of HNRNPU (chain, as listed by the source): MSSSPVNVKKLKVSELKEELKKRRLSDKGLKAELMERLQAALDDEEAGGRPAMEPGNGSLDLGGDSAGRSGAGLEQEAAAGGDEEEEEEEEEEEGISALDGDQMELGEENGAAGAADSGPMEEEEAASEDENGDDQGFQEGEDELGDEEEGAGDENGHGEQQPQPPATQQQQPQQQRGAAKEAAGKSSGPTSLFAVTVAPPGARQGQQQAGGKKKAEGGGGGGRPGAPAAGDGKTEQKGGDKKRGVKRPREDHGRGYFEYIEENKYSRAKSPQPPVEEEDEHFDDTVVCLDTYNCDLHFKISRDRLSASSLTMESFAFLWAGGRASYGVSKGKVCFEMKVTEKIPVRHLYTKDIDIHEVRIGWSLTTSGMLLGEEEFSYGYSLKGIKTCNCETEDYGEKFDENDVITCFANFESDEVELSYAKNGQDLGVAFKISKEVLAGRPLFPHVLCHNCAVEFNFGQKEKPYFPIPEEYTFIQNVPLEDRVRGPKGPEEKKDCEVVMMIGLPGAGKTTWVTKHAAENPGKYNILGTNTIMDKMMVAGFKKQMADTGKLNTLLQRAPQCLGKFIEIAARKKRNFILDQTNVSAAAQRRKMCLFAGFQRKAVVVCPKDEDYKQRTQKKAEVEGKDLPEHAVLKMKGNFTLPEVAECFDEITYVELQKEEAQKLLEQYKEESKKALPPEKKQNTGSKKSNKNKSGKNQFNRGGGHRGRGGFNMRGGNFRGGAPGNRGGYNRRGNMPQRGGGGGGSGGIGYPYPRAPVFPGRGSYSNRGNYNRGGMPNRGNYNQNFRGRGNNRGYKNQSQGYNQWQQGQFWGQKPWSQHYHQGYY
Sequence of HDGFRP2 (chain, as listed by the source): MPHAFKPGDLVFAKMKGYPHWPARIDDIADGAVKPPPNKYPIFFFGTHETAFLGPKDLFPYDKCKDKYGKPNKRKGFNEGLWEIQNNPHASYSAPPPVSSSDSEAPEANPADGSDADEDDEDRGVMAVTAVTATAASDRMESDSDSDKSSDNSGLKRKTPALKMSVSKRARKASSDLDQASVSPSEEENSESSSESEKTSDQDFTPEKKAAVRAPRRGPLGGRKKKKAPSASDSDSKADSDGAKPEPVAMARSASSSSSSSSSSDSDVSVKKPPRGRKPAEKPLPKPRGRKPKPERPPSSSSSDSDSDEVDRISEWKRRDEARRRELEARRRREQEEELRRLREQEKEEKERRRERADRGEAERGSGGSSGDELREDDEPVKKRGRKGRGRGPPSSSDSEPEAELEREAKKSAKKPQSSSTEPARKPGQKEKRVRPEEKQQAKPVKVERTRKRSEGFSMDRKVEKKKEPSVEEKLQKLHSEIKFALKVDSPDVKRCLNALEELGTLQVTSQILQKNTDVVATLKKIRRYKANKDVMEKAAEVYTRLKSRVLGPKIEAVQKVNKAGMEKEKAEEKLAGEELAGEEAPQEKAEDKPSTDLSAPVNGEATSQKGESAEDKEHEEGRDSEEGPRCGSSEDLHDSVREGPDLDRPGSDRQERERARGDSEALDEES

Turning to GTF3C1, the thermal stability score in series [1] (setting [5]) worked out at 1.22; in series [1] (cell cycle stage: mitosis), 3.47. Also, the “solubility in G1/S (log2)” value in series [2] is -0.378. In addition, in series [3], the “solubility change mitosis (log2)” value is -0.00776. Further, the figures for the melting temperature in series [4] (cell cycle stage: G1/S) and in series [4] (cell cycle stage: mitosis) were 47.5 °C and 49.4 °C, respectively.
For the substance HDGFRP2, the thermal stability score is -0.27 in series [1] (setting [5]) and -1.13 in series [1] (cell cycle stage: mitosis). The “solubility in G1/S (log2)” value in series [2] is -0.376. The “solubility change mitosis (log2)” value in series [3] was found to be 0.275. Also, the melting temperature in series [4] (cell cycle stage: G1/S) stood at 54.3 °C; in series [4] (cell cycle stage: mitosis) it was 53.9 °C.
Regarding HECTD1, the results for the thermal stability score in series [1] (setting [5]) and in series [1] (cell cycle stage: mitosis) were 0.479 and -0.0167, respectively. Also, in series [2], the “solubility in G1/S (log2)” value was -0.212. In addition, in series [3], the “solubility change mitosis (log2)” value is -0.16. For the same substance, the melting temperature in series [4] (cell cycle stage: G1/S) and in series [4] (cell cycle stage: mitosis) was 50.4 °C in each case.
As for HINT3, the figures for the thermal stability score in series [1] (setting [5]) and in series [1] (cell cycle stage: mitosis) were -1.15 and -1.14, respectively. In series [2], the “solubility in G1/S (log2)” value is 0.186. In series [3], the “solubility change mitosis (log2)” value is -0.161. The melting temperature in series [4] (cell cycle stage: G1/S) turned out to be 55.1 °C; in series [4] (cell cycle stage: mitosis) it was 54.7 °C.
In the case of HNRNPU, the results for the thermal stability score in series [1] (setting [5]) and in series [1] (cell cycle stage: mitosis) were 7.74 and 17.8, respectively. In series [2], the “solubility in G1/S (log2)” value is -0.381. Besides, in series [3], the “solubility change mitosis (log2)” value came to 0.232. Further, the melting temperature in series [4] (cell cycle stage: G1/S) worked out at 47.1 °C; in series [4] (cell cycle stage: mitosis), 49.5 °C.
Regarding HSP90AB1, the figures for the thermal stability score in series [1] (setting [5]) and in series [1] (cell cycle stage: mitosis) were 0.311 and 0.779, respectively. In addition, the “solubility in G1/S (log2)” value in series [2] is -0.0892. Besides, in series [3], the “solubility change mitosis (log2)” value was -0.125. Besides, the melting temperature in series [4] (cell cycle stage: G1/S) came to 51.3 °C; in series [4] (cell cycle stage: mitosis) it was 51.1 °C.
Regarding HSPA5, the thermal stability score in series [1] (setting [5]) worked out at 3.25; in series [1] (cell cycle stage: mitosis), 3.15. The “solubility in G1/S (log2)” value in series [2] was determined as 0.316. For the same substance, in series [3], the “solubility change mitosis (log2)” value was determined as 0.0735. Also, the results for the melting temperature in series [4] (cell cycle stage: G1/S) and in series [4] (cell cycle stage: mitosis) were 55.5 °C and 56.9 °C, respectively.
On to HUWE1, for which the figures for the thermal stability score in series [1] (setting [5]) and in series [1] (cell cycle stage: mitosis) were 0.946 and 0.312, respectively. In series [2], the “solubility in G1/S (log2)” value is -0.226. The “solubility change mitosis (log2)” value in series [3] is -0.136. Further, the melting temperature in series [4] (cell cycle stage: G1/S) came out at 52 °C; in series [4] (cell cycle stage: mitosis), 51.4 °C.
In the case of KCTD3, the results for the thermal stability score in series [1] (setting [5]) and in series [1] (cell cycle stage: mitosis) were -2.92 and -4.02, respectively. Moreover, the “solubility in G1/S (log2)” value in series [2] was -0.0736. Further, in series [3], the “solubility change mitosis (log2)” value worked out at 0.0231. Also, the values for the melting temperature in series [4] (cell cycle stage: G1/S) and in series [4] (cell cycle stage: mitosis) were 57.6 °C and 56.7 °C, respectively.
Take KIAA1429: the figures for the thermal stability score in series [1] (setting [5]) and in series [1] (cell cycle stage: mitosis) were 0.289 and 0.336, respectively. The “solubility in G1/S (log2)” value in series [2] is -0.435. Further, the “solubility change mitosis (log2)” value in series [3] is 0.17. Moreover, the melting temperature amounted to 47.9 °C in series [4] (cell cycle stage: G1/S) and 50.4 °C in series [4] (cell cycle stage: mitosis).
With KPNA1, the thermal stability score in series [1] (setting [5]) is 1.89; in series [1] (cell cycle stage: mitosis), 3.16. In series [2], the “solubility in G1/S (log2)” value came out at 0.00375. For the same substance, in series [3], the “solubility change mitosis (log2)” value is -0.102. Also, the melting temperature stood at 49 °C in series [4] (cell cycle stage: G1/S) and 49.7 °C in series [4] (cell cycle stage: mitosis).
